Source: patent publication US20260069689A1 (Regeneron, published 2026)
Changes are numbered by the printed parent chain.

B1: mAb14294 (antibody, V domains shown)
VH: EVQLVESGGGLVQPGGSLRLSCAASGFTFSNHWMDWVRQAPGKGLVWVSRINSDGSSTDYADSVRGRFTMSRDNAKNTLYLQMSSLRAEDTAVYYCAREGMIFGAVIIPGWYFDLWGRGALVTVSS
VL: EIVLTQSPGTLSLSPGERATLSCRASQSVSSSQLAWYQQKPGQAPRLLIYGASSRATGIPDRFSGSGSGTDFTLTISRLEPEDFAVYYCQQYDSFGQGTKLEIKR
B2: mAb15150 (antibody, V domains shown)
VH: EVQLVETGGGLIQPGGSLRLSCAAPGFIVSSNYMSWVRQAPGKGLEWVSLLYPGGSTYYADSVKGRFTISRDNSKNTLYLQMNSLRADDTAVYYCARVLPIVEDHFDYWGQGTLVTVSS
VL: DIQLTQSPSFLSASVGDRVTITCRASQGMSSYLAWYQKKPGKAPKLLIYGATILQSGVPSRFSGSGSGTEFTLTISSLQPEDFATYYCQQLNSDPLYMYTFGQGTKLEIKR
B3: mAb14289 (antibody, V domains shown)
VH: QVQLVQSGPEVKKPGASVKVSCKASGYTFTSYAISWVRQAPGQGLEWMGWISAYNGNTNYAQKLQGRVTMTTDTFTSTAYMELRSLRSDDTAVYYCAVPADHITFDYWGQGTLVTVSS
VL: EIVLTQSPGTLSLSPGERATLSCRASQSVSSYLAWYQQKPGQAPRLLIHGASSRATGIPDRFSGSGSGTDFTLTISRLEPEDFAVYYCQQYGSSFLTFGGGTKVEIKR
B4: mAb14258 (antibody, V domains shown)
VH: QLQLQESGPGLVKPSETLSLICTGSGDSISSSHYYWGWIRQPPGKGLEWIGSTYFSGSTYYNPSLKSRVSISVDTSKNQVSLKLISVTAADTAVYYCAREMGATLGDYWGPGTLVTVSS
VL: QSVLTQPPSASGTPGQRVTISCSGSSSNIGNNYVYWYQQFPGTTPRLLIYRNNERPSGVPDRFSGSKSGTSASLVISGLRSEDEADYYCAAWDDSLSAHYVFGTGTKVTVLG
B5: mAb14247 (antibody, V domains shown)
VH: QITLKESGPTLVKPTQTLTLTCTFSGFSLSTSAVGVGWIRQPPGKALEWLALIYWDDDKRYSPSLKSRLTITKDTSKNQLVLTMTNVDPVDTATYYCAHHTIQLIFDYWGQGTLVTVSS
VL: QSALTQPASVSGSPGQSITISCTATSSDVGNYNYVSWYQQHPGKAPKLMIYEVSNRPSGVSNRFSGSKSGNTASLTISGLQAEDEADYYCSSYTSSSTPLVFGGGTKLTVLG
B6: mAb14283 (antibody, V domains shown)
VH: QVQLQESGPGLVKPSGTLSLTCDVSGGSISSNNWWSWVRQRPGKGLQWIGEIYHNENTNYNPSLKSRVIMSIDKSKNQFSLKLTSVTAADTAVYYCARGDVLDWFDPWGQGTLVTVSS
VL: QSALTQPASVSGSPGQSTTISCTGTSSDVGGYNYVSWYQQYPGKAPKLMIYDVTNRPSGVSHRFSGSKSGNTASLTISGLQAEDEADYYCSSYTSSSTVIFGGGTKLTVLG
B7: mAb14312 (antibody, V domains shown)
VH: EVQLVESGGGLVQPGGSLRLSCAASGFTVSRSYMTWVRQAPGKGLEWVSVIFTGGRTDHADSVKGRFTISRHNSKNTLYLQMNSLRTEDTAVYYCARVAIVGATGAFDIWGQGTMVTVSS
VL: QSVLTQPPSVSGAPGQRVTISCTGSSSNIGAGDDVHWYQQLPGTAPKLLIYGNSNRPSGVPDRFSGSKSGTSASLAITGLQAEDEADYYCQSYDSSLSGSVVFGGGTKLTVLG
B8: mAb14257 (antibody, V domains shown)
VH: B7 VH with T35N, I51V, R56T, D58K, A60T, H72D, K75M, T87P, G102E, A103T
VL: B7 VL with S25T, G32D, D33F, L41F, N53H, S54T, V60I
B9: mAb13458 (antibody, V domains shown)
VH: EVQLVESGGGLVQPGRSLRLSCAASGFTFDDYAMHWVRQAPGKGLEWVSGISWNSGSIGYADSVKGRFTISRDNAKNSLYLQMNSLRAEDTALYYCAKDIGITTPYWGQGTLVTVSS
VL: AIQMTQSPSSLSASVGDRVTITCRASQDIRNDLGWYQQKPGKAPKLLIYSASSLQTGVPSRFSGSGSGTDFTLTISSLHPEDFATYYCLQDYWYTWTFGQGTKVEIKR
B10: mAb13459 (antibody, V domains shown)
VH: B9 VH
VL: B9 VL with W93N, T95V
B11: mAb14315 (antibody, V domains shown)
VH: QVQLVQSGAEVKKPGSSVKVSCKASGDTFSTYAINWVRQAPGQGLEWMGRFIHIFGTANYAQKFQGRVTITADESTSTAYMELRSLRSEDTAVYYCARDGVDYGDYRPDYWGQGTLVTVSS
VL: EIVLTQSPGTLSLSPGERATLSCRASQSVSSNYLAWYQQKPGQAPRLLIYGASSRATGIPERFSGSGSGTDFTLTISRLEPEDFAVYYCQQYGSSLYTFGQGTKLEIKR
B12: mAb14255 (antibody, V domains shown)
VH: QVQLQESGPGLVKPSETLSLTCTVSGGSISGYYWSWIRQPPGKGLDWIGYIYYRGNTNYNPSLKSRVTISVDTSNNQFSLKLSSVTAADTAVYYCARYGEGYGDASGYHFDYWGQGTLVTVSS
VL: QSALTQPASVSGSPGQSITISCTGTSSDVGSYNLVSWYQQHPGKAPKLMIYEDSKRPSGVANPFSGSKSGNTASLTISGLQAEDEADYYCSSYAGSSTWVFGGGTKLTVLG
B13: mAb14313 (antibody, V domains shown)
VH: EVQLVESGGGLVQPGRSLRLSCVASGFTFDDSAMHWVRQPPGKGLEWVSGISWNSGIIGYAESVKGRFIISRDNAKNSLFLHMRGLRPEDTAVYYCARDRLELSYYYYGMDVWGQGTTVTVSS
VL: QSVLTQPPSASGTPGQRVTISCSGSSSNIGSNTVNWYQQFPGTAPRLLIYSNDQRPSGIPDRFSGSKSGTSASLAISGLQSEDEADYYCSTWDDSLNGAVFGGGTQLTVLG
B14: mAb14284 (antibody, V domains shown)
VH: QITLKESGPTLVKPTQTLTLTCTFSGFSFSTSGVGVGWIRQPPGKTLEWLALIYWDDDKRYSPSLKSRLTITKDTSKNQVVLTMTNMDPVDTATYFCAHHGIPTIFGYWGQGALVTVSS
VL: QSALTQPASVSGSPGQSITISCTGTSSDLGVFNYVSWYQQHPGKAPKLMIYEVTNRPSGVSNRFSGSKSGNTASLTISGLQAEDEADYYCSSYTTSSTVFGGGTKLTVLG
B15: mAb14235 (antibody, V domains shown)
VH: QITLKESGPTLVKPTQTLTLTCTFSGFSLNTGGVGVGWIRQPPGNALEWLALIYWDDDKRYNPSLKTRLTISKDTSKNQVVLTMTNMDPVDTATYFCAHLTIAVIVDFWGQGTLVTVSS
VL: B14 VL with G24A, L29V, V31T, F32Y, Y38F, Q40H, S96T, T98I
B16: mAb14284 (antibody, V domains shown)
VH: B14 VH
VL: B14 VL

Columns and labels:
[1] = target: T1, SARS-COV-2 RBD extracellular domain expressed with a C-terminal mouse IgG2a Fc (SARS-CoV-2); experiment: Biacore SPR, mAb captured on anti-hFc, 37 C
[2] = target: T1, SARS-COV-2 RBD extracellular domain …; experiment: Biacore SPR, mAb captured on anti-hFc, 25 C
[3] = target: T2, SARS-CoV2 Spike ecto foldon Trimer expressed with a C-terminal myc-myc-hexahistidine (SARS-CoV-2, UniProt P0DTC2 14-1213); experiment: SPR Biacore, mAb captured by anti-hFc, 25C
T2 construct: extracellular domain

[4] = target: T2, SARS-CoV2 Spike ecto foldon Trimer …; experiment: SPR Biacore, mAb captured by anti-hFc, 37C

Binder	Kd [1]	koff [1]	kon [1]	t½ [1]	Kd [2]	koff [2]	kon [2]	t½ [2]	Kd [3]	koff [3]	kon [3]	t½ [3]	Kd [4]	koff [4]	kon [4]	t½ [4]
B1	0.0386 nM	3.5e-05 s⁻¹	906000 M⁻¹ s⁻¹	5.5 h	0.0294 nM	2.68e-05 s⁻¹	911000 M⁻¹ s⁻¹	7.17 h								
B2	0.0296 nM	2.8e-05 s⁻¹	946000 M⁻¹ s⁻¹	6.88 h												
B3	0.0907 nM	0.000128 s⁻¹	1.41e+06 M⁻¹ s⁻¹	1.5 h	0.0628 nM	8.95e-05 s⁻¹	1.43e+06 M⁻¹ s⁻¹	2.15 h								
B4					3.04 nM	0.000109 s⁻¹	35600 M⁻¹ s⁻¹	1.77 h								
B5	0.127 nM	0.00015 s⁻¹	1.18e+06 M⁻¹ s⁻¹	1.28 h	0.131 nM	0.000156 s⁻¹	1.19e+06 M⁻¹ s⁻¹	1.23 h								
B6	0.0631 nM	9.59e-05 s⁻¹	1.52e+06 M⁻¹ s⁻¹	2.01 h	0.0524 nM	8.14e-05 s⁻¹	1.55e+06 M⁻¹ s⁻¹	2.37 h								
B7	0.0347 nM	5.8e-05 s⁻¹	1.67e+06 M⁻¹ s⁻¹	3.32 h	0.0334 nM	5.6e-05 s⁻¹	1.68e+06 M⁻¹ s⁻¹	3.44 h								
B8	0.121 nM	0.000339 s⁻¹	2.81e+06 M⁻¹ s⁻¹	0.568 h	0.0907 nM	0.000254 s⁻¹	2.81e+06 M⁻¹ s⁻¹	0.757 h								
B9	0.0784 nM	9.12e-05 s⁻¹	1.16e+06 M⁻¹ s⁻¹	2.11 h	0.064 nM	7.55e-05 s⁻¹	1.18e+06 M⁻¹ s⁻¹	2.55 h								
B10	0.0939 nM	9.24e-05 s⁻¹	985000 M⁻¹ s⁻¹	2.08 h												
B11	0.0903 nM	7.91e-05 s⁻¹	877000 M⁻¹ s⁻¹	2.43 h	0.0784 nM	6.26e-05 s⁻¹	799000 M⁻¹ s⁻¹	3.07 h								
B12	0.118 nM	0.00025 s⁻¹	2.12e+06 M⁻¹ s⁻¹	0.77 h	0.0726 nM	0.000159 s⁻¹	2.19e+06 M⁻¹ s⁻¹	1.21 h								
B13	0.0582 nM	0.000146 s⁻¹	2.52e+06 M⁻¹ s⁻¹	1.32 h	0.0422 nM	9.97e-05 s⁻¹	2.36e+06 M⁻¹ s⁻¹	1.93 h								
B14									0.0161 nM	1.31e-05 s⁻¹	812000 M⁻¹ s⁻¹	14.7 h	0.0251 nM	2.05e-05 s⁻¹	814000 M⁻¹ s⁻¹	9.41 h
B15	0.0612 nM	6.68e-05 s⁻¹	1.09e+06 M⁻¹ s⁻¹	2.88 h	0.0627 nM	6.89e-05 s⁻¹	1.1e+06 M⁻¹ s⁻¹	2.79 h								
B16	0.027 nM	2.24e-05 s⁻¹	830000 M⁻¹ s⁻¹	8.6 h	0.0255 nM	2.12e-05 s⁻¹	831000 M⁻¹ s⁻¹	9.08 h								
